Measured values taken from PMC6510816.

Tests used:
[1] = target: YAP (UniProt P46937); assay: Flag-14-3-3ζ co-IP, YAP blot; settings: reference: Flag-14-3-3ζ wild type; sites S37
[2] = target: YAP (UniProt P46937); assay: His-YAP Ni-NTA pull-down of Flag-14-3-3ζ IPs; settings: reference: wild type with rERK2; sites S37

Substance	binding against the reference [1]	binding against the reference [2]
14-3-3ζ (from UniProt P63104) Flag-14-3-3ζ S37A	stronger	–
14-3-3ζ (from UniProt P63104) S37A with rERK2	–	gained
